Assay [1] addresses T1, human estrogen receptor α (Homo sapiens, UniProt P03372).
T1 construct: expressed in transfected cells; host or cells: CHO cells
T1 sequence (P03372 1-595): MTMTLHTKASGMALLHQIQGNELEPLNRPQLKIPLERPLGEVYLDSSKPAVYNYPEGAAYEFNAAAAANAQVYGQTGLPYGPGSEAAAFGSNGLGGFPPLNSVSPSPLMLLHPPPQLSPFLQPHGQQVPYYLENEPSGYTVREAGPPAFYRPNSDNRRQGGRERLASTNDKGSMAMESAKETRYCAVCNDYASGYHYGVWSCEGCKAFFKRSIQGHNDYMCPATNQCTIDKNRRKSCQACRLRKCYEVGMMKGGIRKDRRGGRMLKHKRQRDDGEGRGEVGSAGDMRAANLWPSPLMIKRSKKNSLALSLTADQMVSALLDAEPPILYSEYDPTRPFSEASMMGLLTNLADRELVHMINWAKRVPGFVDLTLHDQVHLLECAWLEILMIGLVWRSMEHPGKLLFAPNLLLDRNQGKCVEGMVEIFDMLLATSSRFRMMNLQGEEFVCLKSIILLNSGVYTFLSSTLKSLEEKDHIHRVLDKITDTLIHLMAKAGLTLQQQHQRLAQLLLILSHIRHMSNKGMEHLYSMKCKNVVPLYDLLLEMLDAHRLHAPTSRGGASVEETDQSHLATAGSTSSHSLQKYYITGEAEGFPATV
Put plainly: Transient transfection ERE-luciferase reporter assay in CHO cells. Format: cell-based, hamster. As to the method: To verify that the Δ3-AIB1 mRNA was translated in vivo, transient transfection of CHO cells (FIG. 2; see FIG. 4a) or COS-1 cells (see FIG. 5a) with the Δ3-AIB1 cDNA was performed. COS-1 and CHO cells were plated at densities of 2×10^5 and 5×10^5 cells per well, respectively, in six-well plates, and were cultured for 24 h at 37° C. under 5% CO2 in IMEM or Ham's F-12, respectively, supplemented with 5% FBS that had been treated with dextran-coated charcoal. The medium was then replaced with IMEM containing Lipofectamine Plus (Gibco BRL) and expression and reporter plasmids as indicated. After incubation for 3 h, the medium was replaced with IMEM (COS-1 cells) or Ham's F-12 (CHO cells), each containing 5% dextran-coated charcoal-treated FBS and nuclear receptor ligands. Cells were incubated for 24 h and then disrupted in passive lysis buffer (Promega). Portions (20 μl) of the resulting cell extract were assayed for both firefly and renilla luciferase activities with the Dual-Luciferase reporter assay system (Promega).
The effect of the deletion of the bHLH and PAS A domains was next examined in Δ3-AIB1 on protein function. AIB1 acts as a coactivator for several nuclear receptors, including those for estrogen and progesterone, which are important in breast carcinogenesis. […]

Assay [2] concerns human FGF-BP gene promoter. Put plainly: EGF activation of FGF-BP gene promoter luciferase reporter in ME-180 cells. Format: cell-based. The conditions noted are these: EGF 5 ng/ml, 18 h. As for the experimental part:
ME-180 cells were plated at a density of 5×10^5 cells per well and cultured for 24 h in IMEM supplemented with 5% dextran-charcoal-treated FBS. They were then incubated for 3 h in IMEM supplemented with Lipofectamine Plus and expression and reporter plasmids. Cells were washed and then incubated in IMEM for an additional 3 h before incubation for 18 h with EGF (5 ng/ml) in serum-free IMEM and subsequent lysis. Because of high background induction of pRL-CMV expression by EGF, firefly luciferase activity was normalized by protein concentration as described previously (32).
Cells were transfected with 3 μg of either pcDNA3, pcDNA3-AIB1, or pcDNA3-AIB1-Δ3, together with a luciferase reporter plasmid containing the human FGF-BP gene promoter (1 μg) (32) (FIG. 6). After incubation of cells for 18 h in the absence or presence of EGF (5 ng/ml) in serum-free medium, cell extracts were prepared and assayed for luciferase activity. Activity was normalized by protein concentration, and the normalized activity values were then expressed relative to that of cells transfected with pcDNA3 and not exposed to EGF. Data are means±SEM of values from three independent experiments, each performed in triplicate. *P<0.01 versus the corresponding value for control cells.

Consider “AIB1: 156-kDa full-length nuclear receptor coactivator amplified in breast cancer 1, expressed from pcDNA3-AIB1”, for which, in assay [1] (0.3 μg AIB1 vector vs 3 μg Δ3-AIB1 vector), the “factor of potentiation of the estrogen response at approximately equal amounts of recombinant protein” value is listed as 1.1. Also, in assay [1] (3 μg expression vector, 10 nM estradiol-17β, 24 h), the “increase in estrogen-induced luciferase activity” value turned out to be 1.4 fold. In addition, the “increase of EGF induction of FGF-BP promoter reporter activity” value in assay [2] (ME-180 cells, 3 μg vector) was “increased slightly”.
Consider “EGF: epidermal growth factor [reference compound]”, for which the “increase in FGF-BP promoter reporter activity” value in assay [2] (ME-180 control cells with empty expression vector) worked out at 2.5 fold.

For the origin of these results see patent US7282576B2, “Coactivators in the diagnosis and treatment of breast cancer” (Georgetown University, priority 2001, dated 2007).
